According to publication PMC9289880 (Journal of Medicinal Chemistry, 2022):
Bridges are numbered along the chain shown (N, C = ends).

Target: KRAS^G12D (GDP) (UniProt P01116 1-189, G12D)
Assay: cell-based or functional assay

- KRAS^G12D SOS GNE IC50 (TR-FRET, SOS-catalysed Bodipy-GDP/GTP exchange): 54 nM
Binder: Ac-RRCPLYISYDPVCRR-NH2 (disulfide 3-13) [peptide 2 (KRpep-2)]
